Patent EP4737484A1 (Phil Rivers Technology Co., Ltd, dated 2026)
Substitutions are numbered along the chain they refer to. Names may count otherwise. Values belong to the binder of their own block, whether it stands above or below them.

Key:
[1] = molecular target: T1, huIL-1β-His (human, UniProt P01584 117-269); assay: ELISA, plate coated with huIL-1β-His, anti-human IgG Fc-HRP
[2] = molecular target: T2, full-length human PD-L1 on huPD-L1-CHO-K cells (human, UniProt Q9NZQ7 19-290); assay: flow cytometry on huPD-L1-CHO-K cells, PE anti-human IgG Fc
T2 construct: also called huPD-L1-overexpressing-CHO-K cells; CD3L-PD-L1-CHO

[3] = molecular target: T3, huPD-L1-His (human, UniProt Q9NZQ7 19-238); assay: ELISA, plate coated with huPD-L1-His, anti-human IgG Fc-HRP
T3 construct: also called human recombinant protein huPD-L1-His; antigen PD-L1

[4] = molecular target: T4, huIL-1β-Fc (human); assay: bridging ELISA: coated huIL-1β-Fc, antibody, then huPD-L1-His, anti-His-HRP
T4 construct: also called huIL-1β-Fe

[5] = molecular target: T3, huPD-L1-His; assay: as above
[6] = molecular target: T1, huIL-1β-His; assay: bridging ELISA: coated huPD-L1-Fc, antibody, then huIL-1β-His, anti-His-HRP
[7] = molecular target: huPD-L1-Fc (human); assay: as above
[8] = molecular target: T1, huIL-1β-His; assay: ELISA, plate coated with huIL-1β-His, anti-human IgG Fc-HRP; positive control

B1: BsAb17 (bispecific antibody)
heavy: not shown
light: not shown
chain 1: not shown
chain 2: EIVLTQSPDFQSVTPKEKVTITCRASQSIGSSLHWYQQKPDQSPKLLIKYASQSFSGVPSRFSGSGSGTDFTLTINSLEAEDAAAYYCHQSSSLPFTFGPGTKVDIKSSASTKGPSVFPLAPSSKSTSGGTAALGCLVKDYFPEPVTVSWNSGALTSGVHTFPAVLQSSGLYSLSSVVTVPSSSLGTQTYICNVNHKPSNTKVDKKVEPKSC
notes: Atezolizumab heavy (Knob) and light chain; Canakinumab VH-CL-Fc (hole); also called Construct BsAb17
binding result [1]: binds

B2: BsAb22 (bispecific antibody)
heavy: not shown
light: not shown
chain 1: not shown
chain 2: B1 chain 2 with K206R
notes: Atezolizumab heavy chain (Fc with F405L) and light chain; Canakinumab VH-CL-Fc (K409R); also called Construct BsAb22
binding result [1]: binds

B3: BsAb25 (bispecific antibody)
heavy: not shown
light: EIVLTQSPDFQSVTPKEKVTITCRASQSIGSSLHWYQQKPDQSPKLLIKYASQSFSGVPSRFSGSGSGTDFTLTINSLEAEDAAAYYCHQSSSLPFTFGPGTKVDIKRTVAAPSVFIFPPSDEQLKSGTASVVCLLNNFYPREAKVQWKVDNALQSGNSQESVTEQDSKDSTYSLSSTLTLSKADYEKHKVYACEVTHQGLSSPVTKSFNRGEC
notes: Canakinumab IgG1 heavy chain-(G4S)4-Atezolizumab scFv (VH G44C-(G4S)4-VL Q100C); also called Construct BsAb25
binding result [1]: binds
binding result [2]: binds
binding result [3]: binds

B4: BsAb29 (bispecific antibody)
heavy: not shown
light: B3 light
notes: also called Construct BsAb29
binding result [2]: binds
binding result [4]: binds
binding result [5]: binds
binding result [6]: binds
binding result [7]: binds

More lines, now with the values ahead:

binding result [1]: binds
B5: BsAb18 (bispecific antibody)
heavy: not shown
light: not shown
chain 1: not shown
chain 2: QVQLVESGGGVVQPGRSLRLSCAASGFTFSVYGMNWVRQAPGKGLEWVAIIWYDGDNQYYADSVKGRFTISRDNSKNTLYLQMNGLRAEDTAVYYCARDLRTGPFDYWGQGTLVTVSSASVAAPSVFIFPPSDEQLKSGTASVVCLLNNFYPREAKVQWKVDNALQSGNSQESVTEQDSKDSTYSLSSTLTLSKADYEKHKVYACEVTHQGLSSPVTKSFNRGEC
notes: Atezolizumab heavy (Knob) and light chain; Canakinumab VL-IgG1 constant region (hole); also called Construct BsAb18

binding result [8]: binds
B6: Canakinumab (antibody, human IgG1, kappa, V domains shown)
VH: QVQLVESGGGVVQPGRSLRLSCAASGFTFSVYGMNWVRQAPGKGLEWVAIIWYDGDNQYYADSVKGRFTISRDNSKNTLYLQMNGLRAEDTAVYYCARDLRTGPFDYWGQGTLVTVSS
VL: EIVLTQSPDFQSVTPKEKVTITCRASQSIGSSLHWYQQKPDQSPKLLIKYASQSFSGVPSRFSGSGSGTDFTLTINSLEAEDAAAYYCHQSSSLPFTFGPGTKVDIKR
notes: also called positive control Canakinumab
